Test results taken from publication PMC5700373, “Repression of YdaS Toxin Is Mediated by Transcriptional Repressor RacR in the Cryptic rac Prophage of Escherichia coli K-12”.

T1: RacR (Escherichia coli K-12) (UniProt P76062)
T1 sequence: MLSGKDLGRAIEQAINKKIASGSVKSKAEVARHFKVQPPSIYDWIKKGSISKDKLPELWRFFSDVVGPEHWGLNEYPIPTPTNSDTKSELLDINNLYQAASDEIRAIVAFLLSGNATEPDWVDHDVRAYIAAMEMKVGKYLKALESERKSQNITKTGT

T2: RacR (Escherichia coli K-12, UniProt P76062 1-158)
T2 sequence: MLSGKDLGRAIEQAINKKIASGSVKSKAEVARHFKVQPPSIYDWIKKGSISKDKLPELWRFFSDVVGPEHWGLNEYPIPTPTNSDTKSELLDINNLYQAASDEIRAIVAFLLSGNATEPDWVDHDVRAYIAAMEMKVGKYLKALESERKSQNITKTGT


Columns and labels:
[1] = target: T1, RacR (Escherichia coli K-12); assay: EMSA; conditions: EMSA: 10x buffer 100 mM Tris pH 8, 10 mM EDTA, 1 M NaCl, 1 mM DTT, 50% glycerol, 0.1 mg/ml BSA (presumably 1x final), room temperature 1 h, SYBR green stain. …
RacR = target: T2, RacR; assay: EMSA; 23.5 nM DNA, RacR up to 67.5 nM; single complex; EMSA: 10x buffer 100 mM Tris pH 8, 10 mM EDTA, 1 M NaCl, 1 mM DTT, 50% glycerol, 0.1 mg/ml BSA (presumably 1x final), room temperature 1 h, SYBR green stain. TSA: 50 mM Tris pH 8.5, 500 mM NaCl, 5% glycerol, 20-95 C; conditions: protein: recombinant; tags: C-terminal His (pET28a); chain copies: 2; blunt

Molecule	binding [1]	binding result (RacR)
TGCTTAATATTCTCCTATGCGCATTACATTAGGCAATCCCTACCCTTACTGCATTAGGCACAGCCTATTGACAATTGCGTTAGGCGTCGCCTAATATTTCTGTGTGTTTTTGGAGTTCATTCG (double strand) [123-bp racR-ydaS IGR]	binds	–
49-bp region upstream of ydaS (dsDNA) DNA 1: CGAATGAACTCCAAAAACACACAGAAATATTAGGCGACGCCTAACGCAA DNA 2: TTGCGTTAGGCGTCGCCTAATATTTCTGTGTGTTTTTGGAGTTCATTCG	–	binds
